We go through ten molecules from patent US20170101466A1 (published 2017).

The target in assay [1] is T1, soluble mouse BLyS (mouse, UniProt Q9WU72 127-309).
T1 construct: europium-labelled in DELFIA; also called mBLyS; mouse BAFF (BLyS)
In words: ELISA, soluble mBLyS. (ELISA stands for enzyme-linked immunosorbent assay.)

Assay [2] has as its target T2, soluble human BLyS (human, UniProt Q9Y275 134-285).
T2 construct: also called hBLyS; human BAFF (BLyS)
In words: blocking of biotinylated soluble hBLyS binding to immobilized mBR3.

Assay [3] has as its target T1, soluble mouse BLyS. In words: Biacore T100, binder captured by anti-human Fc, BLyS injected, 1:1 model. As to the method: (§1) A Series S CM5 Chip (GE Healthcare) was amine coupled with an anti-human Fc capturing antibody (GE Healthcare Human Fc Kit) to >10,000 RUs. Sample antibodies were diluted in 1×HBS-EP+ running buffer to 0.15 ug/mL and injected for 45 seconds at 10 uL/min. […] Biacore Evaluation software was used to fit the data to a 1:1 Binding Model.
(In general: Surface plasmon resonance follows binding to a sensor surface in real time, without labels.)

For a further assay, the target named is T3, human APRIL (human, UniProt O75888 105-250, limits assumed).
T3 construct: Bought recombinant protein; also called hAPRIL
T3 sequence (looked up): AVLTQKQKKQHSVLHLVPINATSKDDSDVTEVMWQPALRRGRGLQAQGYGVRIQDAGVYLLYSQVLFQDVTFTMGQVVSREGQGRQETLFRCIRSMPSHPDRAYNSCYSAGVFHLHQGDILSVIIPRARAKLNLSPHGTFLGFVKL
In words: Biacore, antibody captured, APRIL injected. How it is done:
(§2) Recombinant protein NG (Thermo Scientific, Cat #21186) was diluted to 100 μg/ml in 10 mM Sodium Acetate pH 4.0 and then immobilized on the surface of a pre-activated Series S CM4 Biacore chip (GE, Cat #BR-1005-34) using amine coupling. […] Binding response was measured as the difference in total RU increase during 300 second APRIL injection of each individual flow cell and the reference flow cell (e.g., Flow cell 2-1).

Another assay deals with T4, mouse APRIL (mouse, UniProt Q9D777 96-241, limits assumed).
T4 construct: Bought recombinant protein; also called mAPRIL
T4 sequence (looked up): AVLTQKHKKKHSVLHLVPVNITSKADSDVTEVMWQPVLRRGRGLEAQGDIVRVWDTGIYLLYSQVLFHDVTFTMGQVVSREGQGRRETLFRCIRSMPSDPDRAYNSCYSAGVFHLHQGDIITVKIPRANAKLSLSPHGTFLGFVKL
The experiment in a line: Biacore, antibody captured, APRIL injected. As to the method: as §2

Assay [4] has as its target T2, soluble human BLyS. In words: DELFIA competition, Eu-hBLyS binding to coated BR3. How it is done:
(§3) After 5× washing with 200 ul/well of DELFIA 1× wash solution (PE, Cat #4010-0010), plates were blocked with 3% BSA purified from trace heavy metal amounts (PE, Cat #CR84-100) for 3 hours with shaking at room temperature. Plates were washed again five times at 200 μl/well with DELFIA wash solution.
(§4) The final 3 wells across the plate served as controls (2 wells contained 2,000 pM mAbs for negative and background controls while the third contained no mAbs for positive control). […] After 18-24 hrs at 4° C., plates were read on PE EnVision plate reader with laser excitation, LANCE/DELFIA top mirror, and emission filter Eu-615 with a delay of 400 μs. Data were fit to four parameter (variable slope) inhibition dose response curve using GraphPad PRISM 5.0 software.

In assay [5] the target is T1, soluble mouse BLyS. In words: DELFIA competition, Eu-mBLyS binding to coated BR3. How it is done: as §3, §4
For assay [6], the target named is T2, soluble human BLyS. In words: DELFIA competition, Eu-hBLyS binding to coated BCMA. How it is done:
as §3, §4

In assay [7] the target is T2, soluble human BLyS. The experiment in a line: DELFIA competition, Eu-hBLyS binding to coated TACI. As to the method: as §3, §4
Assay [8] has as its target T1, soluble mouse BLyS. In words: DELFIA competition, Eu-mBLyS binding to coated BCMA. As to the method: as §3, §4
The target of assay [9] is T1, soluble mouse BLyS. The experiment in a line: DELFIA competition, Eu-mBLyS binding to coated TACI. As to the method: as §3, §4
For assay [10], the target named is T2, soluble human BLyS. The experiment in a line: Biacore, antibody captured on chip, BLyS injected, 1:1 model, 25 C. How it is done:
(§5) Recombinant protein NG (Thermo Scientific, Cat #21186) was diluted to 100 μg/ml in 10 mM sodium acetate pH 4.0 and then immobilized on the surface of a pre-activated Series S CM5 Biacore chip (GE, Cat #BR-1005-34) using amine coupling. […] After the dissociation period, the chip was regenerated back to baseline by injecting 10 mM glycine pH 1.5 for 120 seconds over the four flow cells. […] The entire data set was fit to a 1:1 interaction model to give kₒₙ, koff, and Kd values. The assay was run at 25° C. in 1× biacore running buffer HBS-EP+ (GE, Cat #BR-1006-69).

Assay [11] has as its target T1, soluble mouse BLyS. The description is as above. As to the method: as §5
Assay [12] has as its target T2, soluble human BLyS. In words: Biacore T100, binder captured by anti-human Fc, BLyS injected, 1:1 model. How it is done: as §1
Assay [13] deals with T2, soluble human BLyS. The experiment in a line: ELISA, soluble hBLyS.

Where only a bound is given, the exact number is not on record here.

B1: 1D6 IgG expressed in HEK293 cells (antibody, V domains shown)
VH: QVTLKESGPTLVKPTQTLTLTCTFSGFSLSTDGVGVGWIRQPPGKALEWLALIYGDDDKRYSPSLKSRLTITKDTSKNQVVLTMTNMDPVDTATYYCAHSISNYDILTGHWIAKTYDYWGQGTLVTVSS
VL: QSALTQPPSASGSPGQSVSISCIGSRSDIGYYNYVSWYQQHPGEAPKLIIFDVSKRPSGVPDRFSGSKSGNTASLTVSGLQPEDEADYYCASYGGRNNLLFGGGTQLTVLG
notes: IgG from HEK293-FreeStyle cells
In the case of B1, the binding result in the assay with soluble mouse BLyS [1] was “no binding”. The molecule also had a 50% inhibitory concentration (IC50) with soluble human BLyS [2] of over 100 nM.

B2: human TACI (R&D Systems receptor chimera) (receptor, UniProt O14836 2-166, looked up, not shown: a dimerising Fc or GST)
chain: SGLGRSRRGGRSRVDQEERFPQGLWTGVAMRSCPEEQYWDPLLGTCMSCKTICNHQSQRTCAAFCRSLSCRKEQGKFYDHLLRDCISCASICGQHPKQCAYFCENKLRSPVNLPPELRRQRSGEVENNSDNSGRYQGLEHRGSEASPALPGLKLSADQVALVYST
notes: also called hTACI; TACI rec Human
In the assay with soluble mouse BLyS [3], B2 displayed a Kd of 0.105 nM, a koff of 6.5e-05 s⁻¹ and an on-rate (kon) of 621000 M⁻¹ s⁻¹.

B3: 6F5 IgG expressed in HEK293 cells (antibody, V domains shown)
VH: EVQLVQSGAEVKKPGSSVKVSCKASGGTFSSYAISWVRQAPGQGLEWMGGISAYKGNTNYAQKLQGRVTMTTDTSTSTAYMELRSLRSEDTAVYYCARGRLAEYDILTGYYFNTWAFDIWGQGTMVTVSS
VL: QSALTQPASVSGSPGQSITISCTGTSSDVGGYNYVSWYQQHPGKAPKLMIYDVSKRPSGVSNRFSGSKSGNTASLTISGLQAEDEADYYCSSYTSSSTPVLFGGGTKLTVLG
notes: as for B1
In the assay with soluble human BLyS [2], B3 returned an IC50 of over 100 nM.

B4: 5G10 IgG1 F243A/V264A double mutein expressed in Pichia pastoris (antibody, V domains shown)
VH: QMQLVQSGAEVKKPGASVKVSCKASGYTFTSYAMHWVRQAPGQRLEWMGWINAGNGNTKYSQKFQGRVTITRDTSASTAYMELSSLRSEDTAVYYCAREMAVAGTYYYYGMDVWGQGTTVTVSS
VL: DIQLTQSPSTLSASVGDRVTITCRASQSISGWLAWYQQKPGRAPKLLIYKASSLESGVPSRFSGSGSGTDFTLTISSLQPEDIATYYCQQFDNLLLMYTFGQGTKLEIRR
notes: IgG1 F243A/V264A (EU) double mutein, alpha-2,6-sialylated, from glycoengineered Pichia pastoris; also called 5G10 (D132947)
In the assay with soluble mouse BLyS [3], B4 returned a dissociation constant (Kd) of 0.732 nM, a koff of 0.000451 s⁻¹ and a kon of 616000 M⁻¹ s⁻¹.

B5: 5G10 IgG expressed in HEK293 cells (antibody, V domains shown)
VH: QMQLVQSGAEVKKPGASVKVSCKASGYTFTSYAMHWVRQAPGQRLEWMGWINAGNGNTKYSQKFQGRVTITRDTSASTAYMELSSLRSEDTAVYYCAREMAVAGTYYYYGMDVWGQGTTVTVSS
VL: DIQLTQSPSTLSASVGDRVTITCRASQSISGWLAWYQQKPGRAPKLLIYKASSLESGVPSRFSGSGSGTDFTLTISSLQPEDIATYYCQQFDNLLLMYTFGQGTKLEIRR
notes: as for B1
As for B5, half-maximal inhibition with soluble mouse BLyS [1] (IC50) was put at 51 nM.

B6: 2C5 IgG expressed in HEK293 cells (antibody, V domains shown)
VH: QVQLVQSGAEVKKPGASVKVSCKASGYTFTGYYIHWVRQAPGQGLEWMGWINPSSGGTNYAQKFQGRVTMTRDTSASTAFMSLSSLRSEDTAVYYCARSYYDILTGYSRNPFDNWGQGTPVTVSS
VL: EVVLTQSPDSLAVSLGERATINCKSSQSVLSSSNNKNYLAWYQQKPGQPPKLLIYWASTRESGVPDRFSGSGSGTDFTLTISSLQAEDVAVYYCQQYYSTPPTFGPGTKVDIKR
notes: as for B1
As to B6, the binding result in the assay with soluble mouse BLyS [1] is “no binding”. Also, in the assay with soluble human BLyS [2], the IC50 is over 100 nM.

B7: 6C10 IgG1 F243A/V264A double mutein expressed in Pichia pastoris (antibody, V domains shown)
VH: EVQLVQSGAEVKKPGASVKVSCKASGYTFTSYGISWVRQAPGQGLEWMGWISAYNGNTNYAQKLQGRVTMTTDTSTSTAYMELRSLRSDDTAVYYCARTYYDILTGYYYYYGMDVWGQGTTVTVSS
VL: EIVLTQSPGTLSLSPGERAMLSCRASQSVGNYLAWYQQKPGQAPRLLIYDASNRATGIPARFSGSGSGTDFTLTINSLEPEDFAVYYCQQRSNWPLTFGGGTKVEIKR
notes: IgG1 F243A/V264A (EU) double mutein, alpha-2,6-sialylated, from glycoengineered Pichia pastoris; also called 6C10-DM; 6C10-DM (Pichia)
In the case of B7, the binding result with human APRIL and with mouse APRIL was “no binding (tested: 50 nM)” in each case. The half-inhibitory concentration (IC50) with soluble human BLyS [4] was 0.0873 nM; in the assay with soluble mouse BLyS [5], over 2 nM; with soluble human BLyS [6] it was 0.017 nM; with soluble human BLyS [7], 0.00074 nM; in the assay with soluble mouse BLyS [8] it was over 2 nM; in the assay with soluble mouse BLyS [9], 0.445 nM. For the same molecule, the Kd with soluble human BLyS [10] worked out at 0.421 nM; in the assay with soluble mouse BLyS [11], 0.234 nM; with soluble human BLyS [12], 0.068 nM; in the assay with soluble mouse BLyS [3] it was 0.232 nM. Further, the off-rate (koff) came out at 5.5e-05 s⁻¹ with soluble human BLyS [10], 7.9e-05 s⁻¹ in the assay with soluble mouse BLyS [11], 2.5e-05 s⁻¹ in the assay with soluble human BLyS [12] and 0.000224 s⁻¹ with soluble mouse BLyS [3]. In addition, the on-rate (kon) with soluble human BLyS [10] came out at 130000 M⁻¹ s⁻¹; with soluble mouse BLyS [11] it was 330000 M⁻¹ s⁻¹; with soluble human BLyS [12], 368000 M⁻¹ s⁻¹; with soluble mouse BLyS [3] it was 967000 M⁻¹ s⁻¹.

B8: 1B5 IgG expressed in HEK293 cells (antibody, V domains shown)
VH: QVQLQESGPGLVEPSETLSLTCTVSGGSISGRNYYWGWIRQSTGKGLEWIGSIYYSGSTYYNPSLKSRVTISVDTSKNQFSLKLSSVTAADTAVYYCARDLANYDILTGYYRARGAFDIWGQGTMVTVSS
VL: QSALTQPASVSGSPGQSITISCTGTSSDVGGYNYVSWYQQHPGKAPKLMIYDVNKRPSGVPDRFSGSKSANTASLTVSGLQAEDEADYYCSSYTAGGNWVFGGGTKLTVLG
notes: as for B1
Regarding B8, the IC50 was 15 nM in the assay with soluble human BLyS [13], 17 nM in the assay with soluble mouse BLyS [1] and 21 nM in the assay with soluble human BLyS [2].

B9: 6A11 IgG1 F243A/V264A double mutein expressed in Pichia pastoris (antibody, V domains shown)
VH: QIQLVQSGTEVKKPGASVKVSCKASGYTFTDYYMHWVRQAPGQGLEWMGRINPNSGGTNYAQKFQGRVTMTRDTSISTAYMELSRLRSDDTFVYYCAREGYDFLTGYTLGGMDVWGQGTTVTVSS
VL: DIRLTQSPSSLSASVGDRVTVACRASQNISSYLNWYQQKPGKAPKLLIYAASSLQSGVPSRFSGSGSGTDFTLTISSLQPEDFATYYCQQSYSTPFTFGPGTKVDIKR
notes: IgG1 F243A/V264A (EU) double mutein, alpha-2,6-sialylated, from glycoengineered Pichia pastoris; also called 6A11 (D132943)
For B9, in the assay with soluble human BLyS [12], the dissociation constant Kd was determined as 0.905 nM, the off-rate (koff) is 0.000174 s⁻¹ and the kon is 192000 M⁻¹ s⁻¹. In the assay with soluble mouse BLyS [3], this molecule came in with a dissociation constant Kd of 0.121 nM, a dissociation rate constant (koff) of 0.000177 s⁻¹ and a kon of 1.47e+06 M⁻¹ s⁻¹.

B10: 10B1 IgG expressed in HEK293 cells (antibody, V domains shown)
VH: EVQLVESGAEVKKPGASVKVSCKASGYTFTSYGISWVRQAPGQGLEWMGWISAYNGNTNYAQKLQGRVTMTTDTSTSTAYMELRSLRSDDTAVYYCARADYDILTGYPRGPVDYWGQGTLVTVSS
VL: QSALTQPPSASGSPGQSVTISCTGTSSDVGHYNYVSWYQQHPGKAPKLIIFDVSDRPSGVSNRFSGSKSGNTASLTISGLQAEDEANYYCSSYTSRNTLIFGGGTKLTVLG
notes: as for B1
Turning to B10, the binding result with soluble mouse BLyS [1] is listed as “no binding”.

By IC50 is commonly meant the concentration that gives 50% inhibition. The low end stands for greater potency, the high end for weaker potency. As usually defined, the Kd is the constant that tells how readily two partners part at equilibrium. Usually koff stands for the rate constant with which the complex falls apart. Read a high koff as a short-lived complex. What is called kon is the second-order rate constant of association.
